The binders below were run against GIPC2, Q8TF65 (assay: holdup assay). Conditions: plain residues with an end cap or a label only (N-terminal biotin on a linker: ado-ado).
Set-up: key: below the threshold = too weak to quantify, mostly under pKd 3.1 to 4

GIPC2, Q8TF65, sequence (Q8TF65 112-203): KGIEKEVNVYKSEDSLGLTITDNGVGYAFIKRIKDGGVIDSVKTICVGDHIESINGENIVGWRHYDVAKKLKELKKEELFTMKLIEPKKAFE

Binder | pKd
RPGFASESKV [ADRB1, P08588] | below the threshold
GQETPLNTFC [MAP7D2, Q96T17] | below the threshold
LTAQEQPVYI [APBA1, Q02410] | below the threshold

What follows are binders tested against DLG5_1, Q8TDM6 (assay: holdup assay). Conditions: plain residues with an end cap or a label only (N-terminal biotin on a linker: ado-ado).
Set-up: key: below the threshold = too weak to quantify, mostly under pKd 3.1 to 4

DLG5_1, Q8TDM6, sequence (Q8TDM6 617-713): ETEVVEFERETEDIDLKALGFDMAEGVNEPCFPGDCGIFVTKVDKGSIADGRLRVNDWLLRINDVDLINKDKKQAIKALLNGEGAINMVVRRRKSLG

Binder | pKd
RPGFASESKV [ADRB1, P08588] | below the threshold
GQETPLNTFC [MAP7D2, Q96T17] | below the threshold
LTAQEQPVYI [APBA1, Q02410] | below the threshold

What follows are binders tested against FRMPD4, Q14CM0 (assay: holdup assay). Conditions: plain residues with an end cap or a label only (N-terminal biotin on a linker: ado-ado).
Set-up: key: below the threshold = too weak to quantify, mostly under pKd 3.1 to 4

FRMPD4, Q14CM0, sequence (Q14CM0 67-160): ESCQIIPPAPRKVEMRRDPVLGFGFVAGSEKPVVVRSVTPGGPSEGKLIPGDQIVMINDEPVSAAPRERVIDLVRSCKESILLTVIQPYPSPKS

Binder | pKd
RPGFASESKV [ADRB1, P08588] | below the threshold
GQETPLNTFC [MAP7D2, Q96T17] | below the threshold
LTAQEQPVYI [APBA1, Q02410] | below the threshold

What follows are binders tested against T1, SYNJ2BP, P57105 (assay: holdup assay). Conditions: plain residues with an end cap or a label only (N-terminal biotin on a linker: ado-ado).
T1 sequence (P57105 8-110, limits assumed, looked up): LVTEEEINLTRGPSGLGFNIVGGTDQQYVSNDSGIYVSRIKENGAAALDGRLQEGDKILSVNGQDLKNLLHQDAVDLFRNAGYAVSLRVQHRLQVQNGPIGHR
Set-up: key: below the threshold = too weak to quantify, mostly under pKd 3.1 to 4

Binder | pKd
RPGFASESKV [ADRB1, P08588] | 4.64
GQETPLNTFC [MAP7D2, Q96T17] | below the threshold
LTAQEQPVYI [APBA1, Q02410] | below the threshold

The binders below were run against CASK, O14936 (assay: holdup assay). Conditions: plain residues with an end cap or a label only (N-terminal biotin on a linker: ado-ado).
Set-up: key: below the threshold = too weak to quantify, mostly under pKd 3.1 to 4

CASK, O14936, sequence (O14936 487-570): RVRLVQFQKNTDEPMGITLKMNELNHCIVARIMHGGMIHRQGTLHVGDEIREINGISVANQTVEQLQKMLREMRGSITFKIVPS

Binder | pKd
RPGFASESKV [ADRB1, P08588] | below the threshold
GQETPLNTFC [MAP7D2, Q96T17] | below the threshold
LTAQEQPVYI [APBA1, Q02410] | below the threshold

Each binder was assayed against T2, DFNB31_2, Q9P202 (assay: holdup assay). Conditions: plain residues with an end cap or a label only (N-terminal biotin on a linker: ado-ado).
T2 sequence (Q9P202 274-371, limits assumed, looked up): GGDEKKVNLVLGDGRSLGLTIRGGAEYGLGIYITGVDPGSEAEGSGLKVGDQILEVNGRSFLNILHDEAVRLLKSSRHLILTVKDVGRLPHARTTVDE
Set-up: key: below the threshold = too weak to quantify, mostly under pKd 3.1 to 4

Binder | pKd
RPGFASESKV [ADRB1, P08588] | below the threshold
GQETPLNTFC [MAP7D2, Q96T17] | below the threshold
LTAQEQPVYI [APBA1, Q02410] | below the threshold

These binders were tested against FRMPD2_3, Q68DX3 (assay: holdup assay). Conditions: plain residues with an end cap or a label only (N-terminal biotin on a linker: ado-ado).
Set-up: key: below the threshold = too weak to quantify, mostly under pKd 3.1 to 4

FRMPD2_3, Q68DX3, sequence (Q68DX3 1073-1166): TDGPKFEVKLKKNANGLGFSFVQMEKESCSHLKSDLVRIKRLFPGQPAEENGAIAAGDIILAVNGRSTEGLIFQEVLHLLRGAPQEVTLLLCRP

Binder | pKd
RPGFASESKV [ADRB1, P08588] | below the threshold
GQETPLNTFC [MAP7D2, Q96T17] | below the threshold
LTAQEQPVYI [APBA1, Q02410] | below the threshold

Each binder was assayed against GRIP2_6, Q9C0E4 (assay: holdup assay). Conditions: plain residues with an end cap or a label only (N-terminal biotin on a linker: ado-ado).
Set-up: key: below the threshold = too weak to quantify, mostly under pKd 3.1 to 4

GRIP2_6, Q9C0E4, sequence (Q9C0E4 648-740): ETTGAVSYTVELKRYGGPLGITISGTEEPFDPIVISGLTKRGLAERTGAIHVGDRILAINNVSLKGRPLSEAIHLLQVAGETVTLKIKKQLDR

Binder | pKd
RPGFASESKV [ADRB1, P08588] | below the threshold
GQETPLNTFC [MAP7D2, Q96T17] | below the threshold
LTAQEQPVYI [APBA1, Q02410] | below the threshold

The binders below were run against T3, PCLO, Q9Y6V0 (assay: holdup assay). Conditions: plain residues with an end cap or a label only (N-terminal biotin on a linker: ado-ado).
T3 sequence (Q9Y6V0 4491-4600, limits assumed, looked up): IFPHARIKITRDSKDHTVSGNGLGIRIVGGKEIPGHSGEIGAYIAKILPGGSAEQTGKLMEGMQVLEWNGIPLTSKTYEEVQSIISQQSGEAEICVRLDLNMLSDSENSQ
Set-up: key: below the threshold = too weak to quantify, mostly under pKd 3.1 to 4

Binder | pKd
RPGFASESKV [ADRB1, P08588] | below the threshold
GQETPLNTFC [MAP7D2, Q96T17] | below the threshold
LTAQEQPVYI [APBA1, Q02410] | below the threshold

These binders were tested against T4, MPP2, Q14168 (assay: holdup assay). Conditions: plain residues with an end cap or a label only (N-terminal biotin on a linker: ado-ado).
T4 sequence (Q14168 180-250, limits assumed, looked up): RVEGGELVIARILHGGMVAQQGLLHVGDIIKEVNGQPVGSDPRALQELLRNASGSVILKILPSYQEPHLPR
Set-up: key: below the threshold = too weak to quantify, mostly under pKd 3.1 to 4

Binder | pKd
RPGFASESKV [ADRB1, P08588] | below the threshold
GQETPLNTFC [MAP7D2, Q96T17] | below the threshold
LTAQEQPVYI [APBA1, Q02410] | below the threshold

Each binder was assayed against T5, PDZRN3_1, Q9UPQ7 (assay: holdup assay). Conditions: plain residues with an end cap or a label only (N-terminal biotin on a linker: ado-ado).
T5 sequence (Q9UPQ7 244-349, limits assumed, looked up): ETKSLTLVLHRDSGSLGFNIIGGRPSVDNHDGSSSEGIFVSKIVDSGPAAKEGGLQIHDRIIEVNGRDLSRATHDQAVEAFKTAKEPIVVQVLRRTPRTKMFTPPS
Set-up: key: below the threshold = too weak to quantify, mostly under pKd 3.1 to 4

Binder | pKd
RPGFASESKV [ADRB1, P08588] | 3.92
GQETPLNTFC [MAP7D2, Q96T17] | below the threshold
LTAQEQPVYI [APBA1, Q02410] | below the threshold

What follows are binders tested against T6, TX1BP3, O14907 (assay: holdup assay). Conditions: plain residues with an end cap or a label only (N-terminal biotin on a linker: ado-ado).
T6 sequence (O14907 10-122, limits assumed, looked up): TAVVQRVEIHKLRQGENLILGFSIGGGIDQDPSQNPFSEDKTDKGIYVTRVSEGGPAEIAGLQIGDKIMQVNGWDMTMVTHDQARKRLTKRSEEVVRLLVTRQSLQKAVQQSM
Set-up: key: below the threshold = too weak to quantify, mostly under pKd 3.1 to 4

Binder | pKd
RPGFASESKV [ADRB1, P08588] | 4.72
GQETPLNTFC [MAP7D2, Q96T17] | 4.04
LTAQEQPVYI [APBA1, Q02410] | below the threshold

Each binder was assayed against T7, SNTG1, Q9NSN8 (assay: holdup assay). Conditions: plain residues with an end cap or a label only (N-terminal biotin on a linker: ado-ado).
T7 sequence (Q9NSN8 52-150, limits assumed, looked up): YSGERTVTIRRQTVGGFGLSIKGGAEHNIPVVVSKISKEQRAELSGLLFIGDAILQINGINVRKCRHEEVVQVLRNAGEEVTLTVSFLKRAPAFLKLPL
Set-up: key: below the threshold = too weak to quantify, mostly under pKd 3.1 to 4

Binder | pKd
RPGFASESKV [ADRB1, P08588] | 4.59
GQETPLNTFC [MAP7D2, Q96T17] | below the threshold
LTAQEQPVYI [APBA1, Q02410] | below the threshold

The binders below were run against T8, GRIP1_2, Q9Y3R0 (assay: holdup assay). Conditions: plain residues with an end cap or a label only (N-terminal biotin on a linker: ado-ado).
T8 sequence (Q9Y3R0 145-248, limits assumed, looked up): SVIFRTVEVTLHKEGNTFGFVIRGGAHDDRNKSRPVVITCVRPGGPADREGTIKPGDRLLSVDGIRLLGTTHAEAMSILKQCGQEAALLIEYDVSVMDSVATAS
Set-up: key: below the threshold = too weak to quantify, mostly under pKd 3.1 to 4

Binder | pKd
RPGFASESKV [ADRB1, P08588] | below the threshold
GQETPLNTFC [MAP7D2, Q96T17] | below the threshold
LTAQEQPVYI [APBA1, Q02410] | below the threshold

Each binder was assayed against T9, LRRC7, Q96NW7 (assay: holdup assay). Conditions: plain residues with an end cap or a label only (N-terminal biotin on a linker: ado-ado).
T9 sequence (Q96NW7 1440-1537, limits assumed, looked up): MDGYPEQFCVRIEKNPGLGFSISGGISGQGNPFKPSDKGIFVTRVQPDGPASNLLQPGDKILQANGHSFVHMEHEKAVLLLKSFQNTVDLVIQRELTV
Set-up: key: below the threshold = too weak to quantify, mostly under pKd 3.1 to 4

Binder | pKd
RPGFASESKV [ADRB1, P08588] | 3.59
GQETPLNTFC [MAP7D2, Q96T17] | below the threshold
LTAQEQPVYI [APBA1, Q02410] | below the threshold

Each binder was assayed against T10, TIAM2, Q8IVF5 (assay: holdup assay). Conditions: plain residues with an end cap or a label only (N-terminal biotin on a linker: ado-ado).
T10 sequence (Q8IVF5 885-986, limits assumed, looked up): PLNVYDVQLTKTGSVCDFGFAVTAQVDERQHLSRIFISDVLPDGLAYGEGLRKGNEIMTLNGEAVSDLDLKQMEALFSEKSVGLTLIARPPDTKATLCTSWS
Set-up: key: below the threshold = too weak to quantify, mostly under pKd 3.1 to 4

Binder | pKd
RPGFASESKV [ADRB1, P08588] | below the threshold
GQETPLNTFC [MAP7D2, Q96T17] | 3.62
LTAQEQPVYI [APBA1, Q02410] | 4.01

Each binder was assayed against MAGI1_2, Q96QZ7 (assay: holdup assay). Conditions: plain residues with an end cap or a label only (N-terminal biotin on a linker: ado-ado).
Set-up: key: below the threshold = too weak to quantify, mostly under pKd 3.1 to 4

MAGI1_2, Q96QZ7, sequence (Q96QZ7 456-580): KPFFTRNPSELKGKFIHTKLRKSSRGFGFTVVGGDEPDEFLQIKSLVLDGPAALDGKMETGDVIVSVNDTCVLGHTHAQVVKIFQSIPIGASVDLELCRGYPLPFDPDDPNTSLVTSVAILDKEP

Binder | pKd
RPGFASESKV [ADRB1, P08588] | 3.88
GQETPLNTFC [MAP7D2, Q96T17] | below the threshold
LTAQEQPVYI [APBA1, Q02410] | below the threshold

Each binder was assayed against T11, DFNB31_1, Q9P202 (assay: holdup assay). Conditions: plain residues with an end cap or a label only (N-terminal biotin on a linker: ado-ado).
T11 sequence (Q9P202 135-233, limits assumed, looked up): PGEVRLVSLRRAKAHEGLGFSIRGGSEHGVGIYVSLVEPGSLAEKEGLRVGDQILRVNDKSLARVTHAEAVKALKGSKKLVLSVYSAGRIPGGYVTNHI
Set-up: key: below the threshold = too weak to quantify, mostly under pKd 3.1 to 4

Binder | pKd
RPGFASESKV [ADRB1, P08588] | 4.21
GQETPLNTFC [MAP7D2, Q96T17] | below the threshold
LTAQEQPVYI [APBA1, Q02410] | below the threshold

What follows are binders tested against T12, FRMPD1, Q5SYB0 (assay: holdup assay). Conditions: plain residues with an end cap or a label only (N-terminal biotin on a linker: ado-ado).
T12 sequence (Q5SYB0 52-145, limits assumed, looked up): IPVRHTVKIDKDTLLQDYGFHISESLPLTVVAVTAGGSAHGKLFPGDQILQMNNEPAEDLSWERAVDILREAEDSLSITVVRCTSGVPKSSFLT
Set-up: key: below the threshold = too weak to quantify, mostly under pKd 3.1 to 4

Binder | pKd
RPGFASESKV [ADRB1, P08588] | below the threshold
GQETPLNTFC [MAP7D2, Q96T17] | below the threshold
LTAQEQPVYI [APBA1, Q02410] | below the threshold

What follows are binders tested against T13, PDZD2_2, O15018 (assay: holdup assay). Conditions: plain residues with an end cap or a label only (N-terminal biotin on a linker: ado-ado).
T13 sequence (O15018 329-429, limits assumed, looked up): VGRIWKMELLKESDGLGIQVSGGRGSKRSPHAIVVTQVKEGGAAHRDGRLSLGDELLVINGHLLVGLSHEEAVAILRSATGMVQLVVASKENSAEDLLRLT
Set-up: key: below the threshold = too weak to quantify, mostly under pKd 3.1 to 4

Binder | pKd
RPGFASESKV [ADRB1, P08588] | 4.2
GQETPLNTFC [MAP7D2, Q96T17] | 4.03
LTAQEQPVYI [APBA1, Q02410] | 4.36

The binders below were run against T14, PTPN13_1, Q12923 (assay: holdup assay). Conditions: plain residues with an end cap or a label only (N-terminal biotin on a linker: ado-ado).
T14 sequence (Q12923 1088-1188, limits assumed, looked up): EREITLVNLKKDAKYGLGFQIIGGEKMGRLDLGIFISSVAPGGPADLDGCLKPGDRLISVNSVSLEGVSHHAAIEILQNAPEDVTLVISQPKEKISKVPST
Set-up: key: below the threshold = too weak to quantify, mostly under pKd 3.1 to 4

Binder | pKd
RPGFASESKV [ADRB1, P08588] | below the threshold
GQETPLNTFC [MAP7D2, Q96T17] | below the threshold
LTAQEQPVYI [APBA1, Q02410] | below the threshold

The binders below were run against Inadl_3, Q8NI35 (assay: holdup assay). Conditions: plain residues with an end cap or a label only (N-terminal biotin on a linker: ado-ado).
Set-up: key: below the threshold = too weak to quantify, mostly under pKd 3.1 to 4

Inadl_3, Q8NI35, sequence (Q8NI35 359-469): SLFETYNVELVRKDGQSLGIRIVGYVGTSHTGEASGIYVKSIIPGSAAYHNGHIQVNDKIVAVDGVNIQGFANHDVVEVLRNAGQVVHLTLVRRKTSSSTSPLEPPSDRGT

Binder | pKd
RPGFASESKV [ADRB1, P08588] | below the threshold
GQETPLNTFC [MAP7D2, Q96T17] | below the threshold
LTAQEQPVYI [APBA1, Q02410] | below the threshold

What follows are binders tested against SNX27, Q96L92 (assay: holdup assay). Conditions: plain residues with an end cap or a label only (N-terminal biotin on a linker: ado-ado).
Set-up: key: below the threshold = too weak to quantify, mostly under pKd 3.1 to 4

Binder | pKd
RPGFASESKV [ADRB1, P08588] | 4.84
GQETPLNTFC [MAP7D2, Q96T17] | 3.49
LTAQEQPVYI [APBA1, Q02410] | below the threshold
